The values that follow come from patent US20220372125A1 (ASLAN PHARMACEUTICALS PTE, published 2022).

This test addresses RON (Macrophage stimulating protein receptor), full length, on cells (human, UniProt Q04912 25-1400). The experiment in a line: cell-based or functional assay.

B1: chimeric 10G1 (mouse Fab with human Fc backbone) (antibody, V domains shown)
VH: EVKLEQSGGGLVQPGGSRKLSCAASGFTFSSFGMHWVRQAPEKGLEWVAYISGGSGTFYYADTVKGRFTISRDNPKNTLFLQMTSLRSEDTAIYYCARSTTVLDYWGQGTTLTVSS
VL: DIVLTQTPSSMYAFLGERVTIICKASQDINNYLNWVQQKPGKAPKTLIYHADRLADGVPSRFSGSGSGQDYSLTISSLEYEDMGIYYCLQYDDFPPFTFGSGTKLEIK
B1: the “EC50 of antibody dependent cellular cytotoxicity (xCELLigence, T47D targets, human NK cells, E:T 10:1)” value came to 0.003 nM.

B2: Narnatumab (antibody, V domains shown)
VH: EVQLVESGGGLVQPGGSLRLSCAASGFTFSSYLMTWVRQAPGKGLEWVANIKQDGSEKYYVDSVKGRFTISRDNAKNSLNLQMNSLRAEDTAVYYCTRDGYSSGRHYGMDVWGQGTTVIVSS
VL: EIVLTQSPATLSLSPGERATLSCRASQSVSRYLAWYQQKPGQAPRLLIYDASNRATGIPARFSGSGSGTDFTLTISSLEPEDFAVYYCQQRSNWPRTFGQGTKVEIK
Regarding B2, the “IC50 of inhibition of MSP induced ERK phosphorylation (AlphaLISA SureFire p-ERK, T47D cells)” value turned out to be 14.9 nM.
